The values below come from patent publication US20210122827A1 (GMAX BIOPHARM, published 2021).

Assay [1] concerns the target T1, human glucagon receptor (human, UniProt P47871 26-477).
T1 construct: also called hGCGR; human GCGR
The experiment in a line: FACS on CHO-DHFR-hGCGR cells, antibody at 500, 50 and 5 nM; control is blank CHO-DHFR- cells.
Description: PBS containing 10 mM EDTA was used to detach the CHO-DHFR-hGCGR cells and 10⁵ cells/tube was dispensed into 1.5 mL EP tubes, and the supernatant was removed after centrifugation, The negative control sample was resuspended with a loading buffer (PBS, 2% FBS). For the positive control, 200 μL hGCGR antibody solution of specific concentrations was added to the cells and incubated at room temperature; after incubation, the cells were then centrifuged at 1500 rpm to remove the supernatant, washed with a FACS loading buffer and centrifuged again. The cells were resuspended with addition (200 μL/well) of a FITC labeled goat anti-mouse fluorescent antibody at 1:50 dilution (BD Pharmingen) and incubated at room temperature for 30 min in the dark. The supernatant was removed after centrifugation, and cells were washed with FACS loading buffer, centrifuged again, and resuspended with the loading buffer for FACS analysis.

For assay [2], the target named is T1, human glucagon receptor. Kind of assay: cell-based or functional assay.

B1: mouse ascites antibody L4H4 (antibody, V domains shown)
VH: DVQLQESGPGLVKPSQSLSLTCTVTGYSITSDYAWTWIRQFPGNKLEWMGYISFTGTTSYTPSLKSRISITRDTSKNQFFLYLNSVTAEDTATYYCVRSVIFTIDSWGQGTSVTVSS
VL: DIQMTQSPASLSASVGETVTITCRASGNIHNYLTWFQQRRGKSPQLLVYNAKALADGVPSRFSGSGSGTEYSLKINSLQPEDFGDYYCLHFWSSPLTFGAGTKLELKR
notes: Murine antibody produced from mouse ascites; also called GCGR antibody L4H4
Regarding B1, the binding result in the assay with human glucagon receptor [1] is on record as “binds”.

B2: hGCGR antibody L7H7 (antibody, V domains shown)
VH: QVQLVQSGAEVKKPGASVKVSCKASGYTFTEYTMHWVRQAPGQRLEWIGGINPDNGGPSYSQKFKGRVTITRDTSASTAYMELSSLRSEDTAVYYCAEETHDYDKFAYWGQGTLVTVSS
VL: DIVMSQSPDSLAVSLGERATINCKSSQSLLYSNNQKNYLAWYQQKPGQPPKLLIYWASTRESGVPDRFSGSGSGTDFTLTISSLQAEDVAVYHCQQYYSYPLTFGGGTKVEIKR
As for B2, the “IC50, antagonism of glucagon-activated hGCGR signaling, direct cAMP assay on CHO-DHFR- cells expressing human GCGR” value in the assay with human glucagon receptor [2] stood at 139 nM.
